This note sets out measurements from patent US20170189513A1.

The test concerns the target HLA-A*24 (human). The test can be described thus: UV-ligand exchange, b2m ELISA. Background: In an ELISA, binding on a coated surface is turned into a signal by an enzyme label.

For AYVVFVSTL [… (SEQ ID No 207)], the peptide exchange yield was 20 to 49%.

With RYAEEVGIF [… (SEQ ID No 199)], the peptide exchange yield was 50 to 75%.

EYNQWFTKL [… (SEQ ID No 176)] registered a peptide exchange yield of 50 to 75%.

In turn, YFIDSTNLKTHF [… (SEQ ID No 269)] returned a peptide exchange yield of 50 to 75%.

HYPPVQVLF [… (SEQ ID No 285)] had a peptide exchange yield of 50 to 75%.

As for YYKSTSSAF [… (SEQ ID No 218)], the peptide exchange yield was in the range of 50 to 75%.

Regarding NYYEVHKELF [… (SEQ ID No 270)], the peptide exchange yield lay in the range of 50 to 75%.

LYITEPKTI [… (SEQ ID No 287)] had a peptide exchange yield of 50 to 75%.

Regarding TYKDEGNDYF [… (SEQ ID No 209)], the peptide exchange yield was in the range of 50 to 75%.

EYSLFPGQVVI [… (SEQ ID No 197)]: the peptide exchange yield lay in the range of 50 to 75%.

For the molecule TFSVSSHLF [… (SEQ ID No 222)], the peptide exchange yield fell in the range of 50 to 75%.

Molecule YYGPSLFLL [… (SEQ ID No 200)] showed a peptide exchange yield of 50 to 75%.

The molecule PYRLIFEKF [… (SEQ ID No 281)] displayed a peptide exchange yield of 20 to 49%.

As to YYEVHKELF [… (SEQ ID No 175)], the peptide exchange yield is above 75%.

For the molecule TYELRYFQI [… (SEQ ID No 204)], the peptide exchange yield was above 75%.

As to VYVGGGQIIHL [… (SEQ ID No 174)], the peptide exchange yield was in the range of 50 to 75%.

For the molecule VYWDSAGAAHF [… (SEQ ID No 202)], the peptide exchange yield was above 75%.

Turning to IYATEAHVF [… (SEQ ID No 201)], the peptide exchange yield lay within 50 to 75%.

Molecule QYLGQIQHI [… (SEQ ID No 268)] displayed a peptide exchange yield of 50 to 75%.

TYSVSFPMF [… (SEQ ID No 195)] had a peptide exchange yield above 75%.

As for VYQGHTALL [… (SEQ ID No 277)], the peptide exchange yield is above 75%.

In turn, LYIDRPLPYL [… (SEQ ID No 196)] displayed a peptide exchange yield of 50 to 75%.
